Data from paper PMC8523820.

Tests used:
[1] = target: mouse ASIC1a channel (mouse (endogenous in C57BL/6 striatal neurons)) (UniProt Q6NXK8)
[2] = target: human ASIC1a channel (human (endogenous in HEK293)) (UniProt P78348)
[3] = target: human ASIC1a channel (human (endogenous in HEK293)) (UniProt P78348); remark: listed apart in the source
[4] = target: eGFP-ASIC1a (rat ASIC1a subunit fused to eGFP) (rat) (UniProt P55926)
[5] = target: mouse ASIC1a channel (mouse (endogenous in C57BL/6 striatal neurons)) (UniProt Q6NXK8); remark: listed apart in the source
[6] = target: eGFP-ASIC1a (rat ASIC1a subunit fused to eGFP) (rat) (UniProt P55926); remark: listed apart in the source

Sequence of UniProt P55926 (P55926 whole entry, the tested form may be a part): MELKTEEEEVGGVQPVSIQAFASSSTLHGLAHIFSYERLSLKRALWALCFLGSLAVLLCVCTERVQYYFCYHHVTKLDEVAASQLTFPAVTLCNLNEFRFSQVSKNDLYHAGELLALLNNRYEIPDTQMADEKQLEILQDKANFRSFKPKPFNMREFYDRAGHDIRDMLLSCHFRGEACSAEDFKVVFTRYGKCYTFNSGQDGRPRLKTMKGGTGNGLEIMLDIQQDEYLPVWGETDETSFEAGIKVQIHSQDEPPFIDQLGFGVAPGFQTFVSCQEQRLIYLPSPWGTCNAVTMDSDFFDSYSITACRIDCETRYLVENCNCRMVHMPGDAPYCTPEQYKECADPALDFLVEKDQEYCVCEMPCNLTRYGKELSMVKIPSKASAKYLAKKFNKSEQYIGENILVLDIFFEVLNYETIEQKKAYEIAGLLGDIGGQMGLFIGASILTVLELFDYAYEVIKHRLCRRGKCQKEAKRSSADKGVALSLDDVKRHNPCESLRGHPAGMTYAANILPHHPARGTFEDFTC
Sequence of UniProt P78348 (P78348 whole entry, the tested form may be a part): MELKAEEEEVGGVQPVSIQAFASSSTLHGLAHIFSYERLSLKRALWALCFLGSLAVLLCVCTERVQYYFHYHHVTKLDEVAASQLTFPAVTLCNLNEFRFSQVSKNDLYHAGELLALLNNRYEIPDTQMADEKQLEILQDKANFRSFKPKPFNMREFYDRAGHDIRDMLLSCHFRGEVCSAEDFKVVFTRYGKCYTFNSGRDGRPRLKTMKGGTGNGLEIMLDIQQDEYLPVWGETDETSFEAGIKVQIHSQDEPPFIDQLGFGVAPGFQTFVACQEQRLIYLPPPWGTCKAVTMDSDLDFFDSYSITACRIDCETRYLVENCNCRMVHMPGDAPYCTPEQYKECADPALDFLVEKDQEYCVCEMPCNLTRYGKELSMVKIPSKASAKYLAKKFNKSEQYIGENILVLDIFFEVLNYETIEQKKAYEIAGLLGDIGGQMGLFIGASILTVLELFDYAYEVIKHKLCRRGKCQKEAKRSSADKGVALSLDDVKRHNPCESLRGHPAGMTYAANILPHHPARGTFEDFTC
Sequence of UniProt Q6NXK8 (Q6NXK8 whole entry, the tested form may be a part): as the sequence (P55926 whole entry, the tested form may be a part) above, with S476N counted along it

Substance MitTx (complex) has a pCaMKII/Tub relative to control, Western blot of lysates of mouse striatal neurons treated with 20 nM MitTx for 2 min (fold of control) [1] of 6.37, a pCaMKII/Tub relative to control, HEK cells pre-incubated with 20 nM Pctx-1 for 30 min, then MitTx for 2 min (fold of control) [2] of 1.17 and a pCaMKII/Tub relative to control, Western blot of lysates of HEK cells treated with 20 nM MitTx for 2 to 10 min (8.88 at 2 min, 10.76 at 10 min) (fold of control) [2] of 10.8. The pERK/tERK relative to control, HEK cells pre-incubated with 20 nM Pctx-1 for 30 min, then MitTx for 2 to 10 min (1.18 at 2 min, 1.42 at 10 min) (fold of control) [2] was 1.42, the pERK/tERK relative to control, Western blot of lysates of HEK cells treated with 20 nM MitTx for 2 to 10 min (7.98 at 2 min, 10.90 at 10 min) (fold of control) [3] was 10.9 and the pERK/tERK relative to untreated eASICx1 cells, Western blot of HEK cells transfected with eGFP-ASIC1a (x1) and treated with MitTx (fold of eASICx1 levels) [4] was 3.42. For the same substance, the pERK/tERK relative to untreated eASICx1 cells, Western blot of HEK cells transfected with eGFP-ASIC1a (x3) and treated with MitTx (fold of eASICx1 levels) [4] was 9.96, the pERK/tERK relative to control, Western blot of lysates of mouse striatal neurons treated with 20 nM MitTx for 2 min (fold of control) [5] was 5.39 and the pERK/tERK relative to untreated eASICx1 cells, HEK cells transfected with eGFP-ASIC1a (x1), pre-incubated with Pctx-1, then MitTx (fold of eASICx1 levels) [6] was 1.1.
